For assay [1], the target named is HXBc2 gp160?CT glycoprotein (HIV-1 isolate HXBc2; bovine rhodopsin) (UniProt P04578). Briefly: FACS titration, anti-human IgG PE.
In assay [2] the target is cleavage-defective YU2 gp160?CT glycoprotein (HIV-1 isolate YU2; bovine rhodopsin) (UniProt P35961). As to the kind of experiment: FACS titration on gp160?CT PLs / 293T cells, half-maximal binding.
Assay [3] addresses Cleavage-competent YU2 gp160?CT glycoprotein (HIV-1 isolate YU2; bovine rhodopsin) (UniProt P35961). As to the kind of experiment: FACS on 293T cells, with against without sCD4 preincubation (without = 100%).
Assay [4] addresses cleavage-defective YU2 gp160?CT glycoprotein (HIV-1 isolate YU2; bovine rhodopsin) (UniProt P35961). Briefly: FACS on PLs, with against without sCD4 preincubation (without = 100%).
For assay [5] the target is unchanged. As to the kind of experiment: FACS titration; saturation not reached with C11.

Regarding 2F5 antibody, the fold higher affinity on PLs with a reconstituted membrane than on beads without a membrane in assay [1] amounted to 10 fold.

Usually EC50 stands for the midpoint of the concentration-response curve. On to IgG1b12 antibody, for which, in assay [2], the 50% effective concentration (EC50) turned out to be 6 nM.

As to 17b antibody, the % increase of 17b binding after preincubation with sCD4 in assay [3] worked out at 63%; in assay [4] it was 46%. Substance C11 antibody came in with a fold lower affinity than IgG1b12 in assay [5] of over 10 fold.

The record behind these values is patent publication US20040109887A1.
